{"source": "paper PMC9606368", "about": "“Membrane mediated phase separation of the bacterial nucleoid occlusion protein Noc” (Scientific Reports, 2022)", "binders": {"B1": {"name": "B. subtilis FtsZ (protein)", "chain": "MLEFETNIDGLASIKVIGVGGGGNNAVNRMIENEVQGVEYIAVNTDAQALNLSKAEVKMQIGAKLTRGLGAGANPEVGKKAAEESKEQIEEALKGADMVFVTAGMGGGTGTGAAPVIAQIAKDLGALTVGVVTRPFTFEGRKRQLQAAGGISAMKEAVDTLIVIPNDRILEIVDKNTPMLEAFREADNVLRQGVQGISDLIATPGLINLDFADVKTIMSNKGSALMGIGIATGENRAAEAAKKAISSPLLEAAIDGAQGVLMNITGGTNLSLYEVQEAADIVASASDQDVNMIFGSVINENLKDEIVVTVIATGFIEQEKDVTKPQRPSLNQSIKTHNQSVPKREPKREEPQQQNTVSRHTSQPADDTLDIPTFLRNRNKRG"}, "B2": {"name": "B. subtilis FtsZ labelled with Alexa-Fluor 647 NHS ester (protein)", "chain": "B1 chain", "modifications": "Alexa-Fluor 647 NHS ester"}, "B3": {"name": "Atto488-Noc R89A (non-CTP-binding mutant, KCK-tagged, labelled) (natural protein, B. subtilis, UniProt P37524 1-283, looked up)", "chain": "MKHSFSRFFGLGEKEQEPEIAEHDTNKEEILEIPVNAIVPNRFQPRTIFSDEKIKELAMTIHTHGIIQPIVVRHTEEEGQYELIAGERAWRAVQSLEWEKIPAIIKDFSDTETASVALIENLQREELSSIEEAHAYARLLELHDLTQEALAQRLGKGQSTIANKLRLLKLPQPVQEAIMEKKITERHARALIPLKQPELQVTLLTEIIEKSLNVKQTEDRVVKMLEQGQRKPKPRRKAFSRDTRIAMNTIRQSLSMVEDSGVKLNTEEEEFEEYIQLTIRIPK", "modifications": "Atto488 maleimide on cysteine (KCK tag)", "notes": "Nucleoid occlusion protein Noc of B. subtilis with R89A; Labelling efficiency of ~20% is told for KCK-tagged Noc"}}, "key": {"[1]": {"biological_target": "T1, nucleoid occlusion protein Noc (wild type) (Bacillus subtilis (strain 168), UniProt P37524)", "T1 chain": "B3 chain with A89R", "assay": "QCM-D on SLB; FtsZ GTPase assay; non-phase-separated Noc; FtsZ is up-concentrated only in Noc condensates"}, "[2]": {"biological_target": "T1, nucleoid occlusion protein Noc (wild …)", "assay": "MST; non-phase-separated Noc; labelled FtsZ strongly partitions into Noc condensates once Noc phase separates"}, "[3]": {"biological_target": "T2, nucleoid occlusion protein Noc (wild type) (B. subtilis, UniProt P37524 1-283)", "T2 construct": "Nucleoid occlusion protein Noc, a ParB-like protein of B. subtilis; In the microscopy with FtsZ the legends say only 'Noc'; part of it may have been the KCK-tagged, Atto488-labelled form; also called WT Noc; wildtype Noc; source: E. coli Rosetta (DE3), purified (HisTrap, Heparin HP, Superdex-75)", "T2 sequence (looked up)": "B3 chain with A89R", "assay": "recruitment to GUV membranes (confocal microscopy); 3 µM unlabelled WT Noc added to Atto488-Noc R89A and GUVs (70:30 POPC:POPG); the mutant alone at 4 µM with 1 mM CTP and 1.5 µM dsNBS does not bind the GUV", "details": "both partners purified"}}, "note": "Numbering of substitutions follows the chain as printed. Numbers in names are those of the source."}
{"binder": "B1", "values": [{"measurement": "binding result", "setting": "[1]", "result": "no binding"}]}
{"binder": "B2", "values": [{"measurement": "binding result", "setting": "[2]", "result": "no binding"}]}
{"binder": "B3", "values": [{"measurement": "binding result", "setting": "[3]", "result": "binds"}]}
